Data on one protein can be found in article PMC2996049 (Structure (London, England : 1993), 2010).

This series concerns the molecule itself. As to the kind of experiment: SEC.

B1: Full-length His6-tagged NrpR from Methanococcus maripaludis (MmNrpR) (natural protein, UniProt Q6LZL7 1-536, looked up)
chain: MDSNIDVEILSILSEASAPVGAKIIADSLKDRGYDIGERAVRYHLKVLDENSLTKKLGYSGREITEKGIEELEKANISFRIGSVFSQVIEKLYLSDFPSKVLINTAKFEGDYKTIKEMVLRSFEAGYSVGDYLNIKKKGNTVSVETLCSITFDNFLLKNGIIPTPEYGGIVKFEDYEPVNFEGVIDFKSSSIDPLVAFIMQGKTDVIGVIENGEGLVPANFRVIPKSSEKQFETILKKDMLNSVLAYGTENVLGMNLNPEQIGVVLVGGLTPLCVPHESGYTADISAATQLKDISSMEKKTKGFLEAKKKKGKFKVTPVLSKMLSKMQTINYDIEDKKGNVVVNTAKIPIEYKEEAINALKDSYENKLAISDRLKVECDDKFLNAYTICSLTVDGVFLKNKIPVIPYYGGILEVKADKKRFIEAIDYEGTSLDPHEVFFNKADGKNYILAGIRKVPMSASEKLIELNEKLGWNSIIEIGRPNNDICGVRVEKCMFGITTIGGTNPFANIRKNNIPVEMKTLHKSIDYSELTHYDDI
As for B1, the “stoichiometry N” value stood at 2.

By stoichiometry N is commonly meant the number of molecules, sites or subunits per partner or assembly.
